Assay results reported in patent publication WO2006089678A2 (dated 2006).

Columns and labels:
[1] = target: T1, Tat, excreted regulatory protein encoded by HIV-1 (HIV-1 IIIB, in infected Jurkat cells) (HIV-1 IIIB, UniProt P04610 1-86); experiment: cell-based or functional assay
T1 sequence: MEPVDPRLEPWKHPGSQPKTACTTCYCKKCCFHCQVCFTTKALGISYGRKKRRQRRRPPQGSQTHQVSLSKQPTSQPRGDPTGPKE

[2] = target: T2, target epitope BSA conjugated peptide (HIV-1, conjugated to BSA); experiment: ELISA, BSA-conjugated peptide coated on plates, HRP rabbit anti-human IgG, luminescence
T2 construct: also called peptide conjugated to BSA

B1: n-CoDeR ® anti-Tat antibody (antibody, V domains shown)
VH: EVQLLESGGGLVQPGGSLRLSCAASGFTFDDYGMAWVRQAPGKGLEWVSGVSWNGSRTHYADSVKGRFTISRDNSKNTLYLQMNSLRAEDTAVYYCARGVAGHDYWGQGTLVTVSS
VL: QSVLTQPPSASGTPGQRVTISCSGSRSNIGSHYVFWYQQLPGTAPKLLIYDNNKRPSGVPDRFSGSKSGTSASLAISGLRSEDEADYYCAAWDGSLSGHVVFGGGTKLTVLG
notes: Human IgG1 lambda, expressed in CHO cells; also called fully human recombinant IgG1 antibody from the n-CoDeR phage display library
- IC50 of inhibition of HIV-1 replication, 1 % initially HIV-1 IIIB infected Jurkat cells, p24 ELISA [1]: 0.05 µg/mL
- IC50 of inhibition of HIV-1 replication, 3 % initially HIV-1 IIIB infected Jurkat cells, p24 ELISA [1]: 0.07 µg/mL
- EC50 [2]: 0.7 nM
